From publication PMC4671958

Molecular target: DNA polymerase theta helicase domain (Polθ-HLD), residues 1–894 (human), O75417
Assay: crystal structure; apo protein, 3.55 Å, four copies in the asymmetric unit; crystallized in 0.2 M NaCl, 0.1 M HEPES (pH 7.0), 20% PEG 6K, 10% ethylene glycol
Conditions: remark: other sources report otherwise

stoichiometry N: 4
B1: DNA polymerase theta helicase domain (Polθ-HLD), residues 1–894, O75417 1-894 (domain or fragment)
chain: MNLLRRSGKRRRSESGSDSFSGSGGDSSASPQFLSGSVLSPPPGLGRCLKAAAAGECKPTVPDYERDKLLLANWGLPKAVLEKYHSFGVKKMFEWQAECLLLGQVLEGKNLVYSAPTSAGKTLVAELLILKRVLEMRKKALFILPFVSVAKEKKYYLQSLFQEVGIKVDGYMGSTSPSRHFSSLDIAVCTIERANGLINRLIEENKMDLLGMVVVDELHMLGDSHRGYLLELLLTKICYITRKSASCQADLASSLSNAVQIVGMSATLPNLELVASWLNAELYHTDFRPVPLLESVKVGNSIYDSSMKLVREFEPMLQVKGDEDHVVSLCYETICDNHSVLLFCPSKKWCEKLADIIAREFYNLHHQAEGLVKPSECPPVILEQKELLEVMDQLRRLPSGLDSVLQKTVPWGVAFHHAGLTFEERDIIEGAFRQGLIRVLAATSTLSSGVNLPARRVIIRTPIFGGRPLDILTYKQMVGRAGRKGVDTVGESILICKNSEKSKGIALLQGSLKPVRSCLQRREGEEVTGSMIRAILEIIVGGVASTSQDMHTYAACTFLAASMKEGKQGIQRNQESVQLGAIEACVMWLLENEFIQSTEASDGTEGKVYHPTHLGSATLSSSLSPADTLDIFADLQRAMKGFVLENDLHILYLVTPMFEDWTTIDWYRFFCLWEKLPTSMKRVAELVGVEEGFLARCVKGKVVARTERQHRQMAIHKRFFTSLVLLDLISEVPLREINQKYGCNRGQIQSLQQSAAVYAGMITVFSNRLGWHNMELLLSQFQKRLTFGIQRELCDLVRVSLLNAQRARVLYASGFHTVADLARANIVEVEVILKNAVPFKSARKAVDEEEEAVEERRNMRTIWVTGRKGLTEREAAALIVEEARMILQQDLVEM
